Test results taken from patent publication US20030096760A1 (GlaxoSmithKline, published 2003).
[ ]: non-standard residue; d: D form.

Target: T1, DET1-DET2-spacer-ek-src SH2 (human src SH2 domain fusion protein) (human)
T1 construct: In the assay it was captured on Protein-G Sepharose through MAB178.1; also called cloned human Src SH2 domain
T1 chain: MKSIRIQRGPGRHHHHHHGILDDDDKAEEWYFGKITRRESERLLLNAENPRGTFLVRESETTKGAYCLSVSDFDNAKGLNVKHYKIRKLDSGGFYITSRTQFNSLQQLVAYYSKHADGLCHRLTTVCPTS
Experiment: ELISA-based filter plate competition assay; SH2 fusion captured by MAB178.1, displacement of 0.1 uM biotinylated pY peptide (SEQ ID NO: 13)

B1: (S)-alpha-(acetylamino)-1,3-dihydro-3-hydroxy-1-oxo-5-isobenzofuranpropanamido-glutamate-glutamate-isoleucine-glutamate-amine (peptide)
peptide: Ac-[(S)‑2‑amino‑3‑(1,3-dihydro-3-hydroxy-1-oxo-isobenzofuran-5-yl)propanoic acid]EEIE-NH2
notes: Synthetic modified pentapeptide; also called Compound 1
  IC50: 250 nM
